Experimental data from article PMC10319729.
pKd: −log10 of the molar value.

Key:
[1] = target: RNF43-ECDTM (RNF43 extracellular domain anchored by its transmembrane domain) on HEK293T cells (UniProt Q68DV7); test: whole-cell binding, fluorescence plate reader; Fc-tagged ligand in 3x serial dilution on cells in 96-well plates, on ice 1 h, washed, fixed with 4.2% paraformaldehyde, Alexa555-labeled anti-human IgG antibody; half-maximum binding (KD) from a three-parameter dose-response fit
[2] = target: ZNRF3ΔRING (ZNRF3 with deletion of the RING domain) on HEK293T cells (UniProt Q9ULT6); test: as above
[3] = target: LGR4 (HA-LGR4) over-expressed on HEK293 cells (UniProt Q9BXB1); test: as above
[4] = target: LGR5ΔCT (human LGR5 without the cytoplasmic C-terminal tail) on HEK293 cells (human) (UniProt O75473); test: as above
[5] = target: LGR5ΔCT (human LGR5 without the cytoplasmic C-terminal tail) on HEK293 cells (human) (UniProt O75473); test: whole-cell binding, fluorescence plate reader; His-tagged ligand in 3x serial dilution on cells in 96-well plates, on ice 1 h, washed, fixed with 4.2% paraformaldehyde, Alexa488-labeled anti-His antibody; half-maximum binding (KD) from a three-parameter dose-response fit

Chain of RNF43-ECDTM (RNF43 extracellular domain anchored by its transmembrane domain) on HEK293T cells (Q68DV7 24-218): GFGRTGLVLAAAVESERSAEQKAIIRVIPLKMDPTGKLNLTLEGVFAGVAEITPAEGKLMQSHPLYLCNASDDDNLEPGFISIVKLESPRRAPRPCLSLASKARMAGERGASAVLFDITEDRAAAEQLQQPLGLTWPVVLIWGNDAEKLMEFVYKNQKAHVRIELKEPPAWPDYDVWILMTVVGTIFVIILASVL

Substance | pKd [1] | pKd [2] | pKd [3] | pKd [4] | pKd [5]
R2Fu-Q70R-mFc (monovalent RSPO2 furin domain with Gln70 to Arg) (from UniProt Q6UXX9 22-243) (Fc fusion) | < 7.00 | < 7.00 | – | – | –
R2Fu-mFc (RSPO2 furin domain fused to monomeric human IgG4-Fc, monovalent) (from UniProt Q6UXX9 37-143) (Fc fusion) | – | – | < 7.30 | 8.85 | –
RSPO2 furin domain with a C-terminal His tag (R2Fu-His) (from UniProt Q6UXX9 37-143) (domain or fragment) | – | – | – | – | 8.72

Further lines, results first:

pKd [1] | pKd [2] | pKd [3] | pKd [4] | pKd [5] | Substance
8.20 | 8.54 | – | – | – | R2Fu-Q70R-bFc (bivalent RSPO2 furin domain with Gln70 to Arg) (from UniProt Q6UXX9 22-243) (Fc fusion)
– | – | 8.80 | 9.10 | – | R2Fu-bFc (RSPO2 furin domain fused to wild-type IgG1-Fc, bivalent) (from UniProt Q6UXX9 37-143) (Fc fusion)
– | – | – | – | 8.59 | R2FuTSP-His (RSPO2 furin domain with TSP domain, His-tagged) (from UniProt Q6UXX9 22-205) (domain or fragment)
